Several values for one entry are separate records, joined by “and”; a condition that tells them apart may be missing. Equal entries are not always repeated.
Key:
[1] = target: Guinea pig BACE1 (Cavia porcellus, UniProt Q1KLR6); experiment: BIAcore SPR binding kinetics, guinea pig BACE1; settings: guinea pig BACE1, pH 7.0
[2] = target: T1, BACE2 (Homo sapiens, UniProt Q9Y5Z0); experiment: SPR analysis, BACE2; type: binding
T1 sequence (Q9Y5Z0 63-518): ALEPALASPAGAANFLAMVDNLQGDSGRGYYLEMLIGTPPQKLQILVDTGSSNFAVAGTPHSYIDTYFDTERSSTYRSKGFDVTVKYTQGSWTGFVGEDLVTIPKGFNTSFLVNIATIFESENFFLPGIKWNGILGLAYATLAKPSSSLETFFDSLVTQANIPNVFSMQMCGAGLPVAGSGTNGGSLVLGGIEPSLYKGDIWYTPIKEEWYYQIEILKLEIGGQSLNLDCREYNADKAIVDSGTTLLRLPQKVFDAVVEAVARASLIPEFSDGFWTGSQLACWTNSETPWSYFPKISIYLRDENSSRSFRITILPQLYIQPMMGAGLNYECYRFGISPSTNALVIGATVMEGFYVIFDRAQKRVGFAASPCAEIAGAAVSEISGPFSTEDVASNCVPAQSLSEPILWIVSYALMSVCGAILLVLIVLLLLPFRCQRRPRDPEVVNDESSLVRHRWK
Description: Further characterization of this antibody was performed to better understand its function.

[3] = test system: E13.5 dorsal root ganglia neurons; experiment: Aβ40 production in DRG neurons; type: cell-based, mouse; settings: highest concentrations
Description: (§1) Similar studies were also performed in dorsal root ganglia, cortical neurons and hippocampal neurons isolated from mice. Briefly, dissociated neuronal cultures were prepared from E13.5 dorsal root ganglia (DRG), E16.5 cortical neurons and E16.5 hippocampal neurons. Neurons were grown for five days in vitro. Fresh media containing YW412.8.31 anti-BACE antibody or control IgG1 was incubated with the neurons for 24 hours. Media was harvested and assayed for the presence of Aβ40 using the MSD® Rodent/Human (4G8) A1340 Ultrasensitive kit according to the Manufacturer's instructions. Aβ40 values were normalized for cell viability, as determined using the CellTiter-Glo Luminescent Cell Viability Assay (Promega). The experiment was performed at least three times, and each point was repeated in duplicate. Data was plotted using a four-parameter non-linear regression curve-fitting program (Kaleidagraph, Synergy Software).

[4] = test system: E16.5 cortical neurons and E16.5 hippocampal neurons; experiment: Aβ40 production in cortical and hippocampal neurons; type: cell-based, mouse; settings: 24 hours
Description: as §1

[5] = test system: Aβ1-40 and Aβ1-42 in hAPP transgenic mice; experiment: hAPP transgenic mice, systemic (IP) dosing, Aβ levels; type: in vivo, mouse; settings: 100 mg/kg IP, 3 doses Q4D
Description: Briefly, 5-month old human APP-expressing mice were treated with 30 mg/kg or 100 mg/kg YW412.8.31 antibody or vehicle by intra-peritoneal injection every four days for a total of three doses (i.e., at days 1, 5, and 9). Animals were euthanized two hours post the final dose. Serum, plasma, and brains were harvested and processed. Plasma, cortex and hippocampus were analyzed for levels of soluble Aβ1-40 and Aβ1-42 using an Amyloid beta (Aβ) ELISA test kit per manufacture's instructions (The Genetics Company). Pharmacokinetic analysis was performed on serum and brain homogenates.

[6] = test system: Aβ1-40 and Aβ1-42 in hAPP transgenic mice; experiment: hAPP transgenic mice, continuous ICV infusion, Aβ levels; type: in vivo, mouse; settings: ICV infusion 7 days
Description: Similar experiments were also performed in which YW412.8.31 anti-BACE1 antibody was delivered systemically or directly into hAPP transgenic mice brains by continuous ICV infusion. For ICV delivery, antibody was delivered continuously for 7 days via an Alzet osmotic minipump (model 2001) implanted unilaterally. The amount of YW412.8.31 antibody delivered was 0.041 mg/day (low dose) or 0.41 mg/day (high dose); 0.33 mg/day Control IgG was delivered to the control group. At euthanasia, plasma, cortex, and hippocampus were harvested and analyzed for levels of soluble Aβ1-40 and Aβ1-42 by ELISA (The Genetics Company) following manufacturer's instructions.

[7] = Antibody concentration in monkey serum and CSF; type: in vivo, Cynomolgus monkey; settings: 30 mg/kg IV
Description: Cynomolgus monkeys were dosed with control IgG or YW412.8.31 anti-BACE1 antibody (30 mg/kg) by IV delivery. Plasma and CSF were sampled up to 7 days prior to dosing to set mean baseline Aβ1-40 levels in each in individual animal, and then at various times after dosing. Total anti-BACE1 or control antibody concentrations in monkey serum and CSF samples were measured using monkey-adsorbed goat anti-human IgG polyclonal antibody (Bethyl, Montgomery, Tex.) as both coat and detection (FIG. 20). Free anti-BACE1 antibody concentrations in monkeys were determined using BACE1 ECD as coat and the monkey-adsorbed goat anti-human IgG antibody (Bethyl) for detection.

Sequence of Guinea pig BACE1 (Q1KLR6 46-473): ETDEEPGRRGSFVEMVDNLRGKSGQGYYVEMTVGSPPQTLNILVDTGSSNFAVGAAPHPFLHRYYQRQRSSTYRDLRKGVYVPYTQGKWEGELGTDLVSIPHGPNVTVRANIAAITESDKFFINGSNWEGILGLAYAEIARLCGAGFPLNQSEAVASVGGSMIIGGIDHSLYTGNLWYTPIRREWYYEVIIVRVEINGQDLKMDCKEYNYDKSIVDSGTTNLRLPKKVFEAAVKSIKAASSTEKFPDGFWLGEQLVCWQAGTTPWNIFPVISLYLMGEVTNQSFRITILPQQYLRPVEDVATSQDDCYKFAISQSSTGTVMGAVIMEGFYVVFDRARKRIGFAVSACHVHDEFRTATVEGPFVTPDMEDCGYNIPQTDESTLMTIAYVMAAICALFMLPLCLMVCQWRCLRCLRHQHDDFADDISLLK

B1: YW412.8.31: affinity matured form of YW412.8 anti-BACE1 antibody (antibody, V domains shown)
VH: EVQLVESGGGLVQPGGSLRLSCAASGFTFLGYGIHWVRQAPGKGLEWVGWISPAGGSTDYADSVKGRFTISADTSKNTAYLQMNSLRAEDTAVYYCARGPFSPWVMDYWGQGTLVTVSS
VL: DIQMTQSPSSLSASVGDRVTITCRASQDVSTAVAWYQQKPGKAPKLLIYSASFLYSGVPSRFSGSGSGTDFTLTISSLQPEDFATYYCQQFPTYLPTFGQGTKVEIK
KOFF [1]: 2.7 × 10^−4 S^−1 | KON [1]: 1.0 × 10^5 M^−1S^−1 | binding to BACE2 [2]: does not bind | reduction in Aβ40 production [3]: ~50% | IC50 [4]: ~2.5 nM | reduction of Aβ1-40 and Aβ1-42 in the brain [5]: 15-22% | reduction of cortical Aβ1-40 and Aβ1-42 (trend) [5]: 12-18% | reduction of hippocampal Aβ1-40 and Aβ1-42 [5]: 13-22% | Aβ reduction following ICV infusion [6]: 15-23% | reduction of Aβ1-40 and Aβ1-42 in cortex ([6]; both doses): 15-23% | reduction of Aβ1-40 and Aβ1-42 in hippocampus ([6]; both doses): 15-20% | concentration in CSF [7]: 0.2-0.3 μg/ml and ~2 nM | peak serum antibody concentration ([7]; 15 minutes post administration): ~800 µg/mL | serum antibody concentration ([7]; 7 days post-dose): 232 µg/mL

Source: patent US9879094B2, “Nucleic acid molecules encoding for BACE1 antibodies” (Genentech, Inc., priority 2010, dated 2018)
